From US10323078B2, “Isolated peptides and fragments thereof from fibrinogen for use as drugs, particularly in skin inflammatory diseases” (Universite Paris Descartes, priority 2015, dated 2019)

Tests used:
[1] = system: HaCaT, NHDK, THP-1, MRC5 and HDF; experiment: H2O2 production by cells stimulated with P. acnes, overall statement for the five cell lines; type: cell-based, human; details: pretreatment of P. acnes strains with small peptide 2.5 to 20 μM; five cell lines and three strains tested
Description: FIG. 17: Dose-dependent inhibition of H2O2 production by fibroblast pre-treated by small Fg1-generated peptides and stimulated by P. acnes. MRC5 cell were incubated for 24 h with small peptides Fg1.1 (light gray bar), Fg1.2 (horizontal line bar), Fg1.3 (hatched bar), Fg1.4 (dark gray bar), Fg1.5 (dotted bar) at concentrations ranging from 2.5 to 20 μM. Measurement of hydrogen peroxide production was realized by spectrofluorometry as described in Materials and Methods. Controls experiments were done with unstimulated MRC5 cell (white bar) and MRC5 stimulated with P. acnes (black bar). Data are means±S.D. of three separate experiments. Statistical significance is indicated by * (P<0.05), ** (P<0.01), *** (P<0.001), and **** (P<0.0001), respectively.
All cells lines (5·10^4 to 10^5 cells/well) were seeded in 96-well plates (Corning Costar, Brumath, France) and treated as previously described. After stimulation, cells were washed three times in PBS and incubated with 100 μl per wells of 5 μM DHE (for determination of O2^●−) or 5 μM H2-DCFDA (for determination of H2O2) for 30 min as described previously and fluorescence intensity was recorded every hour over a period of 5 h. Fluorescence excitation/emission maxima were for DHE: 480/610 nm and for H2-DCFDA: 507/525 nm. At the end of the experiment, the number of adherent cells was evaluated by the crystal violet assay as described below. O2^●−, and H2O2 were assayed by spectrofluorimetry on a Fusion spectrofluorimeter (PackardBell, Paris, France). Levels of ROS were calculated in each sample as follows: reactive oxygen species rate (arbitrary units/min/10^6 cells)=(fluorescence intensity [arbitrary units] at T5h—fluorescence intensity [arbitrary units] at To/300 minutes/number of adherent cells as measured by the crystal violet assay, and were expressed as arbitrary unit (A.U.).
To assess the efficacy of the small Fg1-related peptide, the production of H2O2 by several cell lines (HaCaT, NHDK, THP-1, MRC5 and HDF) stimulated by three P. acnes strains 6919, RON and PIE was measured, in presence or not with the small peptides. The amount of H2O2 produced is compared to that produced by the stimulated cells with untreated bacteria. Production baseline is obtained by measuring H2O2 on unstimulated cells. The measurement of the production of H2O2 is performed by spectrofluorimetry in the presence of specific fluorochromes directly on the monolayer cell.
Two sets of experiments have been implemented: • I) The cells are stimulated (18 h at 37° C.) by P. acnes strains previously pretreated with Fg1.1, Fg1.2, Fg1.3, Fg1.4, and Fg1.5 small peptides at the final concentrations ranging from 2.5 to 20 μM for 1 h at 37° C.; • II) The cells are pretreated first with the five small peptides at the final concentrations ranging from 2.5 to 20 μM for 24 h at 37° C. and stimulated (18 h at 37° C.) by P. acnes strains.
FIG. 17 corresponds to the results obtained with the P. acnes RON strain on the fibroblast MRCS cell line and are representative of the results obtained with all P. acnes and cells lines tested (Table 6).

Pfg = experiment: Western ligand blot with biotinylated Pfg; type: binding, Propionibacterium acnes; details: biotinylated Pfg 0.1 μg/ml; for Recognition of GST-fused recombinant Bß fibrinogen fragments by biotinylated Pfg: E. coli total protein after IPTG induction, 12.5% SDS-PAGE; for Recognition by biotinylated Pfg after electrophoretic separation of fibrinogen: 10 μg per lane, 10% SDS-PAGE
Description: FIG. 5: Binding of P. acnes surface proteins to fibrinogen. (A) Various quantities of human fibrinogen (hFg) and bovine fibrinogen (bFg) were immobilized onto a 96-well polystyrene plate at 4° C. for 18 h and incubated with biotinylated Pfg at 0.1 μg/ml for 2 h at 23° C. Bovine serum albumin (BSA) was used as negative control. Bound material was detected by using the HRP-streptavidin conjugate. Peroxidase activity was measured by using the ABTS substrate at 405 nm. Proteins (10 μg per lane) were separated by 10% SDS-PAGE and detected by (B) Commassie blue staining, and transferred to nitrocellulose membrane and incubated with (C) HRP-streptavidine alone, and (D) biotinylated Pfg (0.1 μg/ml). Lanes 1: molecular weight standards. Lane 2: BSA. Lane 3: hFg. Lane 4: bFg.
FIG. 8: Cloning of Bß human fibrinogen fragments and binding with Pfg. (A) Cloning and expression of recombinant human Bß fibrinogen fragments Fg1, Fg2, Fg3 and Fg4. Fibrinogen fragments were obtained by RT-PCR and expression plasmids were constructed as described in Materials and Methods. (B) GST-fused proteins were expressed in E. coli, fractionated by 12.5% SDS-PAGE, and detected by Coomassie blue staining (B), and incubated with biotinylated Pfg (0.1 μg/ml) as described in Materials and Methods (C).
To characterize the interaction between P. acnes and ligands, we used biotinylated molecules in quantitative and qualitative assays. In a first set of assays, ECM ligands (fibrinogen, collagens I, IV, VI and VIII) were used as labelled proteins with biotin. In a second set of assays, P. acnes surface proteins (total extract and purified Pfg) were biotinylated. For quantitative analysis, unlabeled protein were diluted into 50 mM carbonate-bicarbonate, pH 9.6 buffer to yield a protein concentration ranging from 0.01 to 50 μg/ml, and then immobilized to 96-well polystyrene plates at 4° C. overnight. The wells were rinsed three times with 0.2 ml of PBS containing 0.05% Tween-20 (PBS-Tween). Biotinylated proteins (0.01 to 16 μg/ml in PBS-Tween) were added to the wells and incubated at room temperature for 1 h. The wells were rinsed three times with 0.2 ml of PBS-Tween. Peroxidase conjugated to streptavidin (0.5 μg/ml in PBS-Tween) was added and incubated for 30 min at room temperature. After washing, bound peroxidase was detected using the chromogenic peroxidase substrate ABTS. For qualitative analysis, unlabelled protein (10-75 μg per lane) were separated by SDS-PAGE and then transferred to nitrocellulose membranes (0.45 μm pore size), as described previously (Towbin, 1979). Membranes were then saturated overnight at 4° C. in PBS containing 5% BSA, 0.05% Tween-20 (PBT buffer). Binding activity was detected by incubating the membranes with 20 ml of PBT containing biotinylated proteins (0.1 μg/ml) for 2 h at room temperature followed by three washes with PBT. Bound biotinylated proteins were detected by incubating the membrane with peroxidase conjugated to streptavidin (0.5 μg/ml in PBT) for 1 h at room temperature. After washing, bound peroxidase activity was detected using 3,3′-diaminobenzidine in the presence of CoCl2 and H2O2 (Harlow and Lane, 1988).
Since it was shown that Pfg is recognized by fibrinogen, this ECM ligand was used to analyze the nature of this interaction. First it was analyzed the ability of fibrinogen to be recognized by purified Pfg (FIG. 5). Human and bovine Fg (hFg, bFg) were immobilized to polysterene plate and the binding activity of biotinylated Pfg was measured. […] It has been shown that fibrinogen is a glycoprotein containing both N- and O-linked glycans (Debeire 1985; Reid Townsend 1982; L'Hôte 1996). […] In parallel, deglycosylation was assessed by visualization of a shift in the mobility after electrophoresis separation and Coomassie blue staining (FIG. 6A, lanes 3 and 5) and also by using the RCA-I plant lectin able to recognize ß-linked galactosyl residues in terminal position (FIG. 6C) (Green, 1987). […]

APSLRPAPPPISGGGYRARPAKAAATQKKV (fragment Fg1.5) [small peptide generated from Fg1, overlapping Fg1.2 and Fg1.3]
Inhibition of H2O2 production [1]: did not

YRARPAKAAATQKKVERKAPDAGGCLHADPDLGVLC (fragment Fg1.3) [small peptide generated from Fg1]
Inhibition of H2O2 production [1]: did not

NEEGFFSARGHRPLDKKREEAPSLRPAPPPISGGG (fragment Fg1.2) [small peptide generated from Fg1]
Inhibition of H2O2 production [1]: did not

B1: KLESDVSAQMEYCRTPCTVSCNIPVVSGKECEEIIRKGGETSEMYLIQPDSSVKPYRVYCDMNTENGGWTVIQNRQDGSVDFGRKWDPYKQGFGNVATNTDGKNYCGLPGEYWLGNDKISQLTRMGPTELLIEMEDWKGDKVKAHYGGFTVQNE (protein)
chain: KLESDVSAQMEYCRTPCTVSCNIPVVSGKECEEIIRKGGETSEMYLIQPDSSVKPYRVYCDMNTENGGWTVIQNRQDGSVDFGRKWDPYKQGFGNVATNTDGKNYCGLPGEYWLGNDKISQLTRMGPTELLIEMEDWKGDKVKAHYGGFTVQNE
modifications: fragment Fg3
notes: recombinant fragment of Bß sub-unit of human fibrinogen
Recognition of GST-fused recombinant Bß fibrinogen fragments by biotinylated Pfg (Pfg): only Fg1 was recognized

B2: PTELLIEMEDWKGDKVKAHYGGFTVQNEANKYQISVNKYRGTAGNALMDGASQLMGENRTMTIHNGMFFSTYDRDNDGWLTSDPRKQCSKEDGGGWWYNRCHAANPNGRYYWGGQYTWDMAKHGTDDGVVWMNWKGSWYSMRKMSMKIRPFFPQ (protein)
chain: PTELLIEMEDWKGDKVKAHYGGFTVQNEANKYQISVNKYRGTAGNALMDGASQLMGENRTMTIHNGMFFSTYDRDNDGWLTSDPRKQCSKEDGGGWWYNRCHAANPNGRYYWGGQYTWDMAKHGTDDGVVWMNWKGSWYSMRKMSMKIRPFFPQ
modifications: fragment Fg4
notes: as for B1
Recognition of GST-fused recombinant Bß fibrinogen fragments by biotinylated Pfg (Pfg): only Fg1 was recognized

B3: Bß subunit: sub-unit Bß of human fibrinogen, SEQ ID NO: 1 (protein)
chain: MKRMVSWSFHKLKTMKHLLLLLLCVFLVKSQGVNDNEEGFFSARGHRPLDKKREEAPSLRPAPPPISGGGYRARPAKAAATQKKVERKAPDAGGCLHADPDLGVLCPTGCQLQEALLQQERPIRNSVDELNNNVEAVSQTSSSSFQYMYLLKDLWQKRQKQVKDNENVVNEYSSELEKHQLYIDETVNSNIPTNLRVLRSILENLRSKIQKLESDVSAQMEYCRTPCTVSCNIPVVSGKECEEIIRKGGETSEMYLIQPDSSVKPYRVYCDMNTENGGWTVIQNRQDGSVDFGRKWDPYKQGFGNVATNTDGKNYCGLPGEYWLGNDKISQLTRMGPTELLIEMEDWKGDKVKAHYGGFTVQNEANKYQISVNKYRGTAGNALMDGASQLMGENRTMTIHNGMFFSTYDRDNDGWLTSDPRKQCSKEDGGGWWYNRCHAANPNGRYYWGGQYTWDMAKHGTDDGVVWMNWKGSWYSMRKMSMKIRPFFPQQ
modifications: homo sapiens; sub-unit Bbeta of fibrinogen
Recognition by biotinylated Pfg after electrophoretic separation of fibrinogen (Pfg): strongly recognized

B4: γ subunit: γ chain of fibrinogen (protein, UniProt P02679 27-453, looked up)
Fibrinogen gamma chain: YVATRDNCCILDERFGSYCPTTCGIADFLSTYQTKVDKDLQSLEDILHQVENKTSEVKQLIKAIQLTYNPDESSKPNMIDAATLKSRKMLEEIMKYEASILTHDSSIRYLQEIYNSNNQKIVNLKEKVAQLEAQCQEPCKDTVQIHDITGKDCQDIANKGAKQSGLYFIKPLKANQQFLVYCEIDGSGNGWTVFQKRLDGSVDFKKNWIQYKEGFGHLSPTGTTEFWLGNEKIHLISTQSAIPYALRVELEDWNGRTSTADYAMFKVGPEADKYRLTYAYFAGGDAGDAFDGFDFGDDPSDKFFTSHNGMQFSTWDNDNDKFEGNCAEQDGSGWWMNKCHAGHLNGVYYQGGTYSKASTPNGYDNGIIWATWKTRWYSMKKTTMKIIPFNRLTIGEGQQHHLGGAKQVRPEHPAETEYDSLYPEDDL
Recognition by biotinylated Pfg after electrophoretic separation of fibrinogen (Pfg): No recognition
